In PMC12213002:

Columns and labels:
[1] = endogenous DDX3X western blot, HEK293T
[2] = total DDX3X western blot, siRNA knock-down/rescue; details: glycan lost; control: siDDX3X + SIR FLAG-DDX3X WT
[3] = MG132 rescue of FLAG-DDX3X levels, P2A-GFP normalised; details: glycan lost; control: FLAG-DDX3X WT
[4] = FLAG western blot, transfected HEK293T, normalised to β-tubulin; details: glycan lost; control: FLAG-DDX3X WT
[5] = cycloheximide chase, FLAG western blot, HEK293T; details: glycan lost; control: FLAG-DDX3X WT

B1: DDX3X: OGT siRNA (protein)
parent chain: MSHVAVENALGLDQQFAGLDLNSSDNQSGGSTASKGRYIPPHLRNREATKGFYDKDSSGWSSSKDKDAYSSFGSRSDSRGKSSFFSDRGSGSRGRFDDRGRSDYDGIGSRGDRSGFGKFERGGNSRWCDKSDEDDWSKPLPPSERLEQELFSGGNTGINFEKYDDIPVEATGNNCPPHIESFSDVEMGEIIMGNIELTRYTRPTPVQKHAIPIIKEKRDLMACAQTGSGKTAAFLLPILSQIYSDGPGEALRAMKENGRYGRRKQYPISLVLAPTRELAVQIYEEARKFSYRSRVRPCVVYGGADIGQQIRDLERGCHLLVATPGRLVDMMERGKIGLDFCKYLVLDEADRMLDMGFEPQIRRIVEQDTMPPKGVRHTMMFSATFPKEIQMLARDFLDEYIFLAVGRVGSTSENITQKVVWVEESDKRSFLLDLLNATGKDSLTLVFVETKKGADSLEDFLYHEGYACTSIHGDRSQRDREEALHQFRSGKSPILVATAVAARGLDISNVKHVINFDLPSDIEEYVHRIGRTGRVGNLGLATSFFNERNINITKDLLDLLVEAKQEVPSWLENMAYEHHYKGSSRGRSKSSRFSGGFGARDYRQSSGASSSSFSSSRASSSRSGGGGHGSSRGFGGGGYGGFYNSDGYGGNYNSQGVDWWGN
- expression_or_secretion ([1]; glycan lost, control: siRNA against firefly luciferase): decreases

B2: DDX3X: SIR FLAG-DDX3X Ser584Ala (protein)
parent chain: MSHVAVENALGLDQQFAGLDLNSSDNQSGGSTASKGRYIPPHLRNREATKGFYDKDSSGWSSSKDKDAYSSFGSRSDSRGKSSFFSDRGSGSRGRFDDRGRSDYDGIGSRGDRSGFGKFERGGNSRWCDKSDEDDWSKPLPPSERLEQELFSGGNTGINFEKYDDIPVEATGNNCPPHIESFSDVEMGEIIMGNIELTRYTRPTPVQKHAIPIIKEKRDLMACAQTGSGKTAAFLLPILSQIYSDGPGEALRAMKENGRYGRRKQYPISLVLAPTRELAVQIYEEARKFSYRSRVRPCVVYGGADIGQQIRDLERGCHLLVATPGRLVDMMERGKIGLDFCKYLVLDEADRMLDMGFEPQIRRIVEQDTMPPKGVRHTMMFSATFPKEIQMLARDFLDEYIFLAVGRVGSTSENITQKVVWVEESDKRSFLLDLLNATGKDSLTLVFVETKKGADSLEDFLYHEGYACTSIHGDRSQRDREEALHQFRSGKSPILVATAVAARGLDISNVKHVINFDLPSDIEEYVHRIGRTGRVGNLGLATSFFNERNINITKDLLDLLVEAKQEVPSWLENMAYEHHYKGSSRGRSKSSRFSGGFGARDYRQSSGASSSSFSSSRASSSRSGGGGHGSSRGFGGGGYGGFYNSDGYGGNYNSQGVDWWGN
- expression_or_secretion [2]: decreases

B3: DDX3X: FLAG-OGT WT over-expression (protein)
parent chain: MSHVAVENALGLDQQFAGLDLNSSDNQSGGSTASKGRYIPPHLRNREATKGFYDKDSSGWSSSKDKDAYSSFGSRSDSRGKSSFFSDRGSGSRGRFDDRGRSDYDGIGSRGDRSGFGKFERGGNSRWCDKSDEDDWSKPLPPSERLEQELFSGGNTGINFEKYDDIPVEATGNNCPPHIESFSDVEMGEIIMGNIELTRYTRPTPVQKHAIPIIKEKRDLMACAQTGSGKTAAFLLPILSQIYSDGPGEALRAMKENGRYGRRKQYPISLVLAPTRELAVQIYEEARKFSYRSRVRPCVVYGGADIGQQIRDLERGCHLLVATPGRLVDMMERGKIGLDFCKYLVLDEADRMLDMGFEPQIRRIVEQDTMPPKGVRHTMMFSATFPKEIQMLARDFLDEYIFLAVGRVGSTSENITQKVVWVEESDKRSFLLDLLNATGKDSLTLVFVETKKGADSLEDFLYHEGYACTSIHGDRSQRDREEALHQFRSGKSPILVATAVAARGLDISNVKHVINFDLPSDIEEYVHRIGRTGRVGNLGLATSFFNERNINITKDLLDLLVEAKQEVPSWLENMAYEHHYKGSSRGRSKSSRFSGGFGARDYRQSSGASSSSFSSSRASSSRSGGGGHGSSRGFGGGGYGGFYNSDGYGGNYNSQGVDWWGN
- expression_or_secretion ([1]; glycan gained, control: FLAG-empty vector): increases

B4: DDX3X: Ser584Ala (protein)
parent chain: MSHVAVENALGLDQQFAGLDLNSSDNQSGGSTASKGRYIPPHLRNREATKGFYDKDSSGWSSSKDKDAYSSFGSRSDSRGKSSFFSDRGSGSRGRFDDRGRSDYDGIGSRGDRSGFGKFERGGNSRWCDKSDEDDWSKPLPPSERLEQELFSGGNTGINFEKYDDIPVEATGNNCPPHIESFSDVEMGEIIMGNIELTRYTRPTPVQKHAIPIIKEKRDLMACAQTGSGKTAAFLLPILSQIYSDGPGEALRAMKENGRYGRRKQYPISLVLAPTRELAVQIYEEARKFSYRSRVRPCVVYGGADIGQQIRDLERGCHLLVATPGRLVDMMERGKIGLDFCKYLVLDEADRMLDMGFEPQIRRIVEQDTMPPKGVRHTMMFSATFPKEIQMLARDFLDEYIFLAVGRVGSTSENITQKVVWVEESDKRSFLLDLLNATGKDSLTLVFVETKKGADSLEDFLYHEGYACTSIHGDRSQRDREEALHQFRSGKSPILVATAVAARGLDISNVKHVINFDLPSDIEEYVHRIGRTGRVGNLGLATSFFNERNINITKDLLDLLVEAKQEVPSWLENMAYEHHYKGSSRGRSKSSRFSGGFGARDYRQSSGASSSSFSSSRASSSRSGGGGHGSSRGFGGGGYGGFYNSDGYGGNYNSQGVDWWGN
- degradation_or_half_life, other: proteasome-dependent loss of protein [3]: decreases
- expression_or_secretion, percent_of_wt [4]: decreases
- degradation_or_half_life, other: turnover rate [5]: decreases
